For 36 variants, abundance fitness results are on record in the Human Domainome abundance scans (Beltran et al. 2025).

B1: Far upstream element-binding protein 3, residues 75 to 150; numbered along this chain, Q96I24 (parent)
chain: RTVITEEFKVPDKMVGFIIGRGGEQISRIQAESGCKIQIASESSGIPERPCVLTGTPESIEQAKRLLGQIVDRCRN

± gives the uncertainty stated by the source.

Variants of B1 are the subject of this data set. Kind of data set: abundance fitness (aPCA) (normalised: wild type 0, dead -1); higher = more abundant; growth selection in yeast, the domain comes from the species named. The conditions noted are these: Homo sapiens.
Regarding RTVITEEFKVPDKMVGFIIGRGGEQISRIQAESGCKIQIASESSGIPERPCVVTGTPESIEQAKRLLGQIVDRCRN [L53V], the abundance fitness is -0.227 ± 0.033.
With RTVITEEFKVPDKMVGFIIGRGGEQISRIQAESGCKIQIASESSGIPERPCVRTGTPESIEQAKRLLGQIVDRCRN [L53R] the figure was -1.25 ± 0.066.
With RTVITEEFKVPDKMVGFIIGRGGEQISRIQAESGCKIQIASESSGIPERPCVSTGTPESIEQAKRLLGQIVDRCRN [L53S] the figure was -0.838 ± 0.065; with RTVITEEFKVPDKMVGFIIGRGGEQISRIQAESGCKIQIASESSGIPERPCVTTGTPESIEQAKRLLGQIVDRCRN [L53T], -0.94 ± 0.077.
With RTVITEEFKVPDKMVGFIIGRGGEQISRIQAESGCKIQIASESSGIPERPCVWTGTPESIEQAKRLLGQIVDRCRN [L53W] the figure was -1.42 ± 0.13.
On to RTVITEEFKVPDKMVGFIIGRGGEQISRIQAESGCKIQIASESSGIPERPCVLIGTPESIEQAKRLLGQIVDRCRN [T54I], for which the abundance fitness was -0.065 ± 0.12.
With RTVITEEFKVPDKMVGFIIGRGGEQISRIQAESGCKIQIASESSGIPERPCVLDGTPESIEQAKRLLGQIVDRCRN [T54D] the figure was -0.187 ± 0.077; with RTVITEEFKVPDKMVGFIIGRGGEQISRIQAESGCKIQIASESSGIPERPCVLYGTPESIEQAKRLLGQIVDRCRN [T54Y], -0.102 ± 0.071; with RTVITEEFKVPDKMVGFIIGRGGEQISRIQAESGCKIQIASESSGIPERPCVLFGTPESIEQAKRLLGQIVDRCRN [T54F], -0.378 ± 0.23.
The result for RTVITEEFKVPDKMVGFIIGRGGEQISRIQAESGCKIQIASESSGIPERPCVLRGTPESIEQAKRLLGQIVDRCRN [T54R] reads -0.018 ± 0.034; that for RTVITEEFKVPDKMVGFIIGRGGEQISRIQAESGCKIQIASESSGIPERPCVLAGTPESIEQAKRLLGQIVDRCRN [T54A], -0.11 ± 0.046.
With RTVITEEFKVPDKMVGFIIGRGGEQISRIQAESGCKIQIASESSGIPERPCVLEGTPESIEQAKRLLGQIVDRCRN [T54E] the figure was -0.071 ± 0.05.
Regarding RTVITEEFKVPDKMVGFIIGRGGEQISRIQAESGCKIQIASESSGIPERPCVLLGTPESIEQAKRLLGQIVDRCRN [T54L], the abundance fitness is -0.129 ± 0.048.
With RTVITEEFKVPDKMVGFIIGRGGEQISRIQAESGCKIQIASESSGIPERPCVLPGTPESIEQAKRLLGQIVDRCRN [T54P] the figure was -1.15 ± 0.12; with RTVITEEFKVPDKMVGFIIGRGGEQISRIQAESGCKIQIASESSGIPERPCVLHGTPESIEQAKRLLGQIVDRCRN [T54H], -0.01 ± 0.079; with RTVITEEFKVPDKMVGFIIGRGGEQISRIQAESGCKIQIASESSGIPERPCVLWGTPESIEQAKRLLGQIVDRCRN [T54W], -0.269 ± 0.051.
Regarding RTVITEEFKVPDKMVGFIIGRGGEQISRIQAESGCKIQIASESSGIPERPCVLCGTPESIEQAKRLLGQIVDRCRN [T54C], the abundance fitness is -0.187 ± 0.066.
With RTVITEEFKVPDKMVGFIIGRGGEQISRIQAESGCKIQIASESSGIPERPCVLVGTPESIEQAKRLLGQIVDRCRN [T54V], the abundance fitness was -0.044 ± 0.041.
Regarding RTVITEEFKVPDKMVGFIIGRGGEQISRIQAESGCKIQIASESSGIPERPCVLKGTPESIEQAKRLLGQIVDRCRN [T54K], the abundance fitness is -0.033 ± 0.051.
The result for RTVITEEFKVPDKMVGFIIGRGGEQISRIQAESGCKIQIASESSGIPERPCVLSGTPESIEQAKRLLGQIVDRCRN [T54S] reads -0.078 ± 0.045; that for RTVITEEFKVPDKMVGFIIGRGGEQISRIQAESGCKIQIASESSGIPERPCVLMGTPESIEQAKRLLGQIVDRCRN [T54M], -0.077 ± 0.05; that for RTVITEEFKVPDKMVGFIIGRGGEQISRIQAESGCKIQIASESSGIPERPCVLGGTPESIEQAKRLLGQIVDRCRN [T54G], -0.512 ± 0.041.
The result for RTVITEEFKVPDKMVGFIIGRGGEQISRIQAESGCKIQIASESSGIPERPCVLNGTPESIEQAKRLLGQIVDRCRN [T54N] reads -0.1 ± 0.075.
As to RTVITEEFKVPDKMVGFIIGRGGEQISRIQAESGCKIQIASESSGIPERPCVLTQTPESIEQAKRLLGQIVDRCRN [G55Q], the abundance fitness was -1.18 ± 0.083.
With RTVITEEFKVPDKMVGFIIGRGGEQISRIQAESGCKIQIASESSGIPERPCVLTHTPESIEQAKRLLGQIVDRCRN [G55H] the figure was -1.22 ± 0.14; with RTVITEEFKVPDKMVGFIIGRGGEQISRIQAESGCKIQIASESSGIPERPCVLTDTPESIEQAKRLLGQIVDRCRN [G55D], -0.905 ± 0.077.
The result for RTVITEEFKVPDKMVGFIIGRGGEQISRIQAESGCKIQIASESSGIPERPCVLTSTPESIEQAKRLLGQIVDRCRN [G55S] reads -0.827 ± 0.045; that for RTVITEEFKVPDKMVGFIIGRGGEQISRIQAESGCKIQIASESSGIPERPCVLTLTPESIEQAKRLLGQIVDRCRN [G55L], -1.39 ± 0.085.
With RTVITEEFKVPDKMVGFIIGRGGEQISRIQAESGCKIQIASESSGIPERPCVLTITPESIEQAKRLLGQIVDRCRN [G55I], the abundance fitness is -1.12 ± 0.2.
The result for RTVITEEFKVPDKMVGFIIGRGGEQISRIQAESGCKIQIASESSGIPERPCVLTMTPESIEQAKRLLGQIVDRCRN [G55M] reads -1.24 ± 0.1; that for RTVITEEFKVPDKMVGFIIGRGGEQISRIQAESGCKIQIASESSGIPERPCVLTKTPESIEQAKRLLGQIVDRCRN [G55K], -0.972 ± 0.063.
The result for RTVITEEFKVPDKMVGFIIGRGGEQISRIQAESGCKIQIASESSGIPERPCVLTFTPESIEQAKRLLGQIVDRCRN [G55F] reads -1.17 ± 0.16; that for RTVITEEFKVPDKMVGFIIGRGGEQISRIQAESGCKIQIASESSGIPERPCVLTRTPESIEQAKRLLGQIVDRCRN [G55R], -1.07 ± 0.041; that for RTVITEEFKVPDKMVGFIIGRGGEQISRIQAESGCKIQIASESSGIPERPCVLTNTPESIEQAKRLLGQIVDRCRN [G55N], -0.989 ± 0.1.
For the variant RTVITEEFKVPDKMVGFIIGRGGEQISRIQAESGCKIQIASESSGIPERPCVLTATPESIEQAKRLLGQIVDRCRN [G55A], the abundance fitness was -0.855 ± 0.04.
Consider RTVITEEFKVPDKMVGFIIGRGGEQISRIQAESGCKIQIASESSGIPERPCVLTTTPESIEQAKRLLGQIVDRCRN [G55T], for which the abundance fitness is -1.09 ± 0.078.
